Blank lines part the entries; values can stand above or below the compound they belong to.
Experiments:
[1] = test system: human red blood cells; assay: Hemolysis of human red blood cells; format: cell-based; conditions: equivalent concentrations (20 mmol), absorbance at 413 nm
Procedure: In addition, hemolysis of human red blood cells was performed to provide a more quantitative cytotoxicity evaluation of the PEG-grafted lipids. Cell lysis caused by cytotoxic material leads to release of heme into solution, which was detected by absorbance at 413 nm and compared to control experiments performed in the absence of the synthetic material. Results in Table 6 for equivalent concentrations (20 mmol) of sodium lauryl sulfate (SLS) and mPEG-600 were shown for the comparison.

[2] = mouse, in vivo, iv, 10 mg/kg
Procedure: Groups of three male mice (B6D2F1) were used for the studies. Pharmacokinetics (PK) were performed on heparinized mouse plasma samples obtained typically at 0 hr, 0.08 hr, 0.25 hr, 0.5 hr, 1 hr, 2 hr, 4 hr, 8 hr, 16 hr and 24 hr after the bolus IV injection or oral feeding for posaconazole and at 0 hr, 0.08 hr, 0.25 hr, 0.5 hr, 1 hr, 2 hr, 4 hr, 8 hr, 16 hr and 24 hr for itraconazole. Samples were analyzed using a HPLC-MS method. To determine the level of each drug, the drug was first isolated from plasma with a sample pre-treatment. Acetonitrile were used to remove proteins in samples. An isocratic HPLC-MS method was then used to separate the drugs from any potential interference. Drug levels were measured by MS detection with a multiple reaction monitoring (MRM) mode. PK data was analyzed using the WinNonlin program (ver. 5.2, Pharsight) compartmental models of analysis.
The drug was administered intravenously and the dosing strength was 10 mg/kg.

[3] = Spontaneous liposome formation of DAG-PEG lipids; format: physicochemical
Source text: Herein, we describe biologically degradable linear PEG analogs carrying diacylglycerol lipid groups. These new molecules belong to a class referred to as diacylglycerol-polyethyleneglycols (DAG-PEGs). DAG-PEGs having certain properties form liposomes spontaneously upon mixing with an aqueous solution. Briefly, DAG-PEGs or lipid mixtures including DAG-PEGs must have packing parameters that allow liposome formation. Generally, Pa is preferably between about 0.84 and 0.88, and Pv is preferably between about 0.88 and 0.93. Also, the DAG-PEGs or lipid mixtures including DAG-PEGs must have a melting point below the temperature of liposome formation. If a DAG-PEG meets these conditions, it will form liposomes spontaneously (without external energy inputs). Spontaneous liposomes and DAG-PEGs are described in U.S. Pat. No. […], which is hereby incorporated by reference. The particular DAG-PEGs described in U.S. Pat. No. […] utilized a single oxy (alternatively called oxyl) linkage between the PEG and the glycerol backbone.
A number of new DAG-PEGs were synthesized and tested. Most of the combinations of PEG chains and fatty acids were chosen because it was known or expected that such DAG-PEGs with oxy linkages would have packing parameters and melting points favorable for the formation of liposomes.

[4] = In vitro stability of selective linkers at low pH; format: physicochemical; conditions: 10 mM phosphate buffer (pH 2.1), approximately 0.05 g/mL, 37°, GPC with RI detector
Procedure: Three DAG-PEGs with equivalent PEG chains and fatty acids, but different linkages (shown in Table 5) were tested for stability at low pH, in the range of 1.4 to 2.1. Table 5 includes alternate names for each of the three DAG-PEGs tested.
The selected DAG-PEGs were mixed with 10 mM phosphate buffer (pH 2.1) at final concentrations approximately 0.05 g/mL and incubated at 37° . The sample solutions were tested on a GPC column with RI detector and the breakdown fragments were further confirmed by LC-MS/MS.
In FIG. 1, (1) is PEG (n=12)-3-acetyl-1,2-rac-dioleoylglucerol, (2) is PEG (n=12)-3-acetamido-dioleoylglycerol and (3) is PEG (n=12)-3-N-(mercaptomethyl)-Propionamido-1,2-rac-dioleoylglucerol.

Compound: CCCCCCCCCCCCOS(=O)(=O)[O-].[Na+] [SLS, sodium lauryl sulfate]
% Hemolysis [1]: 80%

AUC [2]: 164.1 µg·h/mL
Compound: POPC

Compound: PEG (n=12)-3-acetyl-1,2-rac-dioleoylglycerol [PEG-12-Ac2-GDO]
Spontaneous Liposome at 20° C. ([3]; 20° C.): Yes
Spontaneous Liposome at 37° C. ([3]; 37° C.): Yes
stability at low pH [4]: stable

Compound: PEG (n=12)-3-acetamido-dioleoylglycerol [PEG-12-N3-GDO]
stability at low pH [4]: relatively stable

Compound: PEG (n=12)-3-N-(mercaptomethyl)-Propionamido-1,2-rac dioleoylglycerol [PEG-12-S2-GDO]
stability at low pH [4]: degraded quickly

Source: US8304565B2, “PEG-lipid conjugates for liposomes and drug delivery” (priority 2008, dated 2012)
